From PMC11166458, “Caskin2 is a novel talin- and Abi1-binding protein that promotes cell motility” (Journal of Cell Science, 2024)

Tested on: Caskin2
Assay: GFP-Trap pulldown of Caskin2 by GFP-tagged Abi1 constructs in COS-7 cells
Assay type: binding
Conditions: western blot
Method: For transient expression, COS-7 cells were grown to 70% confluence in 10 cm culture dishes and transfected with plasmid DNAs using the DEAE–dextran method ([Schaapveld et al., 1998]). Briefly, 4.5 µg of plasmid DNA was mixed with 500 µg/ml DEAE–dextran in 2.5 ml PBS. Cells were washed two times with PBS and then incubated for 30 min at 37°C with the DEAE–dextran solution. Subsequently, 80 µM chloroquine was added to the cells in 10 ml DMEM with FCS and cells were incubated at 37°C for 3 h. After aspiration of the medium, the cells were treated with 3 ml of DMEM with FCS containing 10% DMSO for 2.5 min. The DMSO solution was then removed and replaced with fresh medium, after which the cells were further incubated for 48–72 h before analysis.
For analysis of protein in whole-cell lysates, cells were washed three times with cold PBS, lysed in Nonidet P-40 lysis buffer [20 mM Tris-HCl pH 7.5, 100 mM NaCl, 1% NP-40), supplemented with Na3VO4 (1.5 mM), NaF (15 mM), protease inhibitor cocktail (1:1000; Sigma-Aldrich) and phosphatase inhibitor cocktail 3 (1:100; Sigma-Aldrich)] and cleared by centrifugation at 14,000 g for 1 h at 4°C. […]
GFP-Trap pulldown experiments were performed as follows. Cleared lysates containing equal amounts of proteins, as determined by a Pierce™ BCA Protein Assay, were incubated with GFP-Trap agarose beads (Chromotek) in a rotation wheel for 6 h at 4°C. […]

B1: GFP–Abi1-DAWN: GFP-tagged Abi1 mutant harboring the mutations D453A and W455N (protein)
chain: MAELQMLLEEEIPSGKRALIESYQNLTRVADYCENNYIQATDKRKALEETKAYTTQSLASVAYQINALANNVLQLLDIQASQLRRMESSINHISQTVDIHKEKVARREIGILTTNKNTSRTHKIIAPANMERPVRYIRKPIDYTVLDDVGHGVKWLKAKHGNNQPARTGTLSRTNPPTQKPPSPPMSGRGTLGRNTPYKTLEPVKPPTVPNDYMTSPARLGSQHSPGRTASLNQRPRTHSGSSGGSGSRENSGSSSIGIPIAVPTPSPPTIGPAPGSAPGSQYGTMTRQISRHNSTTSSTSSGGYRRTPSVTAQFSAQPHVNGGPLYSQNSISIAPPPPPMPQLTPQIPLTGFVARVQENIADSPTPPPPPPPDDIPMFDDSPPPPPPPPVDYEDEEAAVVQYNDPYADGDPAWAPKNYIEKVVAIYDYTKDKDDELSFMEGAIIYVIKKNDAGNYEGVCNRVTGLFPGNYVESIMHYTD
modifications: left off: GFP, end not stated, kept
notes: GFP-tagged Abi1 mutant harboring the mutations D453A and W455N
Caskin2 precipitation by Abi1 construct: unable to precipitate Caskin2
